Assay results taken from patent US20180055768.

System: HA-tagged wt ARRDC1

GFP-tagged WWP2, sequence (chain, as listed by the source): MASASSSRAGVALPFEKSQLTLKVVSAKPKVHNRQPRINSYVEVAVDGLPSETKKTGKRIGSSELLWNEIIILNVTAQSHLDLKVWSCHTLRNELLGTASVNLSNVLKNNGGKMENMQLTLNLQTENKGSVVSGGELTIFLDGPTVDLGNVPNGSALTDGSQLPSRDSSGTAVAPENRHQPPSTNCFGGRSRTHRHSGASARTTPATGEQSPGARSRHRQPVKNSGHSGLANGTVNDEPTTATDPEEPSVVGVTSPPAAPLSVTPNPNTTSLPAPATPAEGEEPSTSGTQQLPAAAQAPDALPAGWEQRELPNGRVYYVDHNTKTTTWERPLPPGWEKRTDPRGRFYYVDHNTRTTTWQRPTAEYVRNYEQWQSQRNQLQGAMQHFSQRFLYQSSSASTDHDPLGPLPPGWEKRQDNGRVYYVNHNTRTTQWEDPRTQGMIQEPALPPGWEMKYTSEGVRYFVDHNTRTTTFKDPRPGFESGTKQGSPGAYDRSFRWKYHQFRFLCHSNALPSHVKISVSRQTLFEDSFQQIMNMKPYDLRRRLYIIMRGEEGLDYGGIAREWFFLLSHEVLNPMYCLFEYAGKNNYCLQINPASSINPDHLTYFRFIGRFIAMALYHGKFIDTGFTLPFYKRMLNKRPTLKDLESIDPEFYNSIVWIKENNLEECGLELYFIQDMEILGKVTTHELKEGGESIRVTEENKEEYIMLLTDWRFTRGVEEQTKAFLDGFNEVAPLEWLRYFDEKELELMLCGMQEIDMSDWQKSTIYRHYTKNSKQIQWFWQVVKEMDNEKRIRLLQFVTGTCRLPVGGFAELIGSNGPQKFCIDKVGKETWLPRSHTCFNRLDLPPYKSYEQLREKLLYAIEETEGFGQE

For GFP-tagged WWP2, the “ubiquitination of ARRDC1 (immunoblot of WCEs and ARMMs)” value was “ubiquitination of ARRDC1 was enhanced by WWP2”.
